Columns and labels:
[1] = biological target: T1, PTK7 on PTK7 positive cell line SaOS-2 (osteosarcoma) (UniProt Q13308 31-1070, limits assumed); assay: cell-based or functional assay
T1 sequence (looked up): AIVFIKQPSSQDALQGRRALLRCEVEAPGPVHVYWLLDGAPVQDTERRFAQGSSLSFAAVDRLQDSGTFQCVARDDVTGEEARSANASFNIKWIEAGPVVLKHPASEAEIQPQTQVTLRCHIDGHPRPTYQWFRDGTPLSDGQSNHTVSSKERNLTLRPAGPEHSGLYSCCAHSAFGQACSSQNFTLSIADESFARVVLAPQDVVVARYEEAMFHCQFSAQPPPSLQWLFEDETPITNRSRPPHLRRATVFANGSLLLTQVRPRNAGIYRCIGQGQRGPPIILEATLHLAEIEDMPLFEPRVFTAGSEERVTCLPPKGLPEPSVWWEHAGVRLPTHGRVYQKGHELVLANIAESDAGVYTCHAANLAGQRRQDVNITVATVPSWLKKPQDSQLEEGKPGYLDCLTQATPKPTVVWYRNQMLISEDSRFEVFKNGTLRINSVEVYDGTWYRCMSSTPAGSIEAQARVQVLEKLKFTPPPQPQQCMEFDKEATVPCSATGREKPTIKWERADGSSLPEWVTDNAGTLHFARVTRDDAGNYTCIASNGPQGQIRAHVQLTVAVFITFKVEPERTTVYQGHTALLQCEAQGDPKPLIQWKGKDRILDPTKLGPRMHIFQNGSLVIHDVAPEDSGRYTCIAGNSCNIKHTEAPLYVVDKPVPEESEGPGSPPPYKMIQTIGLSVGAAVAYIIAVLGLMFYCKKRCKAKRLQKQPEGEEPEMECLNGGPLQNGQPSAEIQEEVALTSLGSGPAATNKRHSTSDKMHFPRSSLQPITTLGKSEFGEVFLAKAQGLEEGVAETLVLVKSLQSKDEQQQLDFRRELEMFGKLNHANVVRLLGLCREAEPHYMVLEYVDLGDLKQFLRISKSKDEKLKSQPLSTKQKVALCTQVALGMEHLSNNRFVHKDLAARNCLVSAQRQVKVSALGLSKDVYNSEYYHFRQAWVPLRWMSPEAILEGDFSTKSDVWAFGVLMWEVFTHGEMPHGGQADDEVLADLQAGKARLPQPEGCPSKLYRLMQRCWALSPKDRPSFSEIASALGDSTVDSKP

[2] = biological target: T1, PTK7 on PTK7 positive cell line SaOS-2 …; assay: cell-based or functional assay; remark: listed apart in the source
[3] = biological target: T2, recombinant human PTK7.Fc (R and D Systems, catalog #9799-TK) (human, UniProt Q13308 31-704, limits assumed); assay: flow cytometry, percent of CAR T cells positive for 10 ug/mL PTK7.Fc
T2 construct: Bought reagent; also called soluble recombinant human PTK7.Fc; soluble antigen PTK7; not shown: Fc part of the bought fusion (detected with anti-human Fc)
T2 sequence (looked up): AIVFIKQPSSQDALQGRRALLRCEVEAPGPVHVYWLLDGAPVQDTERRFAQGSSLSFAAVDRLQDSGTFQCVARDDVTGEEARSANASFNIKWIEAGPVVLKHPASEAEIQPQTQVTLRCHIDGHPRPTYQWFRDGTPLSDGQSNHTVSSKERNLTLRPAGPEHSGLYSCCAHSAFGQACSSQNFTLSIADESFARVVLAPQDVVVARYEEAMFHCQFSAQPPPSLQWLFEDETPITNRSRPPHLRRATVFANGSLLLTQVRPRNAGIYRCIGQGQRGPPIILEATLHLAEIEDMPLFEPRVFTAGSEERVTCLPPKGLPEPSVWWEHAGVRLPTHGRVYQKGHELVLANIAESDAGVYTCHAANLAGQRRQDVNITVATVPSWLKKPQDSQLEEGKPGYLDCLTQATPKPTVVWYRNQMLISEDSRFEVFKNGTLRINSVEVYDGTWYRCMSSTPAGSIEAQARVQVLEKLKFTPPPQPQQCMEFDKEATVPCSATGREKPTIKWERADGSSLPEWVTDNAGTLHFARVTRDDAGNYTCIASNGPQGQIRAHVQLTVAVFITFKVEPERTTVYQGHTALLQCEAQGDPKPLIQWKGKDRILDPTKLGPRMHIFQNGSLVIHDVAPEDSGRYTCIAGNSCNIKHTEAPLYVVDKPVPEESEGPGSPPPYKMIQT
Procedure: In addition to detecting surface CAR expression, the ability of the CAR T cells and masked CAR T cells to detect target antigen was also determined. Live CAR T cells were gated by their forward scatter (FSC) and side scatter (SSC) profiles, and with DAPI dye (Invitrogen, catalog #: D3571). The cells were then stained with 10 μg/mL recombinant human PTK7.Fc (R and D Systems, catalog #9799-TK Lot DHMCO219041) as described above in Example 3, and with mouse anti-human.Fc conjugated to APC (Biolegend cat #409305) as secondary antibody for detection (FIG. 3).

anti-PTK7 antibody Ab181 = biological target: T3, anti-PTK7 antibody Ab181; assay: phage display selection of peptide binders of Ab181 (Screen 2, XnCXnCXn library)
T3 construct: Unmasked parent IgG1kappa; also called Ab181 IgG1kappa

B1: CTX181.M5 (other)
chain: QGCTYPSWVAYIRFCGSSGGSGGSGGSGGGPLGLAGGSSGQVQLVESGGGVVQPGRSLRLSCAASGFTFSSYGMHWVRQAPGKGLEWVAVIWDDGSNKYYVDSVKGRFTISRDNSKNTLYLQMNSLRAEDTAVYYCARDDYYGSGSFNSYYGTDVWGQGTTVTVSSGGGGSGGGGSGGGGSEIVLTQSPATLSLSPGERATLSCRASQSVSIYLAWYQQKPGQAPRLLIYDASNRATGIPARFSGSGSGTDFTLTISSLEPEDFAVYYCQQRSNWPPFTFGPGTKVDIKSAAAFVPVFLPAKPTTTPAPRPPTPAPTIASQPLSLRPEACRPAAGGAVHTRGLDFACDIYIWAPLAGTCGVLLLSLVITLYCNHRNRSKRSRLLHSDYMNMTPRRPGPTRKHYQPYAPPRDFAAYRSRVKFSRSADAPAYQQGQNQLYNELNLGRREEYDVLDKRRGRDPEMGGKPRRKNPQEGLYNELQKDKMAEAYSEIGMKGERRRGKGHDGLYQGLSTATKDTYDALHMQALPPR
notes: Masked chimeric antigen receptor on the surface of TRAC-/B2M- human T cells; entry without signal peptide
- % Cell killing at E:T = 1:0.5 [1]: 29.6%
- % Cell killing at E:T = 1:1 [1]: -0.8%
- IFNγ (pg/mL) at E:T = 1:0.5 [2]: 523 pg/mL
- IFNγ (pg/mL) at E:T = 1:1 [2]: 459 pg/mL
- % Antigen detection [3]: 18.5%

B2: CTX181.M3 (other)
chain: QGCTMPPSPRSKVICGSSGGSGGSGGSGGGPLGLAGGSSGQVQLVESGGGVVQPGRSLRLSCAASGFTFSSYGMHWVRQAPGKGLEWVAVIWDDGSNKYYVDSVKGRFTISRDNSKNTLYLQMNSLRAEDTAVYYCARDDYYGSGSFNSYYGTDVWGQGTTVTVSSGGGGSGGGGSGGGGSEIVLTQSPATLSLSPGERATLSCRASQSVSIYLAWYQQKPGQAPRLLIYDASNRATGIPARFSGSGSGTDFTLTISSLEPEDFAVYYCQQRSNWPPFTFGPGTKVDIKSAAAFVPVFLPAKPTTTPAPRPPTPAPTIASQPLSLRPEACRPAAGGAVHTRGLDFACDIYIWAPLAGTCGVLLLSLVITLYCNHRNRSKRSRLLHSDYMNMTPRRPGPTRKHYQPYAPPRDFAAYRSRVKFSRSADAPAYQQGQNQLYNELNLGRREEYDVLDKRRGRDPEMGGKPRRKNPQEGLYNELQKDKMAEAYSEIGMKGERRRGKGHDGLYQGLSTATKDTYDALHMQALPPR
- % Cell killing at E:T = 1:0.5 [1]: 39%
- % Cell killing at E:T = 1:1 [1]: 17.8%
- IFNγ (pg/mL) at E:T = 1:0.5 [2]: 833 pg/mL
- IFNγ (pg/mL) at E:T = 1:1 [2]: 799 pg/mL

B3: CTX181.M12 (other)
chain: QGCTMPVHTYSQWLCGSSGGSGGSGGSGGGPLGLAGGSSGQVQLVESGGGVVQPGRSLRLSCAASGFTFSSYGMHWVRQAPGKGLEWVAVIWDDGSNKYYVDSVKGRFTISRDNSKNTLYLQMNSLRAEDTAVYYCARDDYYGSGSFNSYYGTDVWGQGTTVTVSSGGGGSGGGGSGGGGSEIVLTQSPATLSLSPGERATLSCRASQSVSIYLAWYQQKPGQAPRLLIYDASNRATGIPARFSGSGSGTDFTLTISSLEPEDFAVYYCQQRSNWPPFTFGPGTKVDIKSAAAFVPVFLPAKPTTTPAPRPPTPAPTIASQPLSLRPEACRPAAGGAVHTRGLDFACDIYIWAPLAGTCGVLLLSLVITLYCNHRNRSKRSRLLHSDYMNMTPRRPGPTRKHYQPYAPPRDFAAYRSRVKFSRSADAPAYQQGQNQLYNELNLGRREEYDVLDKRRGRDPEMGGKPRRKNPQEGLYNELQKDKMAEAYSEIGMKGERRRGKGHDGLYQGLSTATKDTYDALHMQALPPR
- % Cell killing at E:T = 1:0.5 [1]: 29.5%
- % Cell killing at E:T = 1:1 [1]: 18.5%
- IFNγ (pg/mL) at E:T = 1:0.5 [2]: 2420 pg/mL
- IFNγ (pg/mL) at E:T = 1:1 [2]: 1770 pg/mL

B4: CTX181.M9 (other)
chain: QGCHIGKRPVPCLWIGSSGGSGGSGGSGGGPLGLAGGSSGQVQLVESGGGVVQPGRSLRLSCAASGFTFSSYGMHWVRQAPGKGLEWVAVIWDDGSNKYYVDSVKGRFTISRDNSKNTLYLQMNSLRAEDTAVYYCARDDYYGSGSFNSYYGTDVWGQGTTVTVSSGGGGSGGGGSGGGGSEIVLTQSPATLSLSPGERATLSCRASQSVSIYLAWYQQKPGQAPRLLIYDASNRATGIPARFSGSGSGTDFTLTISSLEPEDFAVYYCQQRSNWPPFTFGPGTKVDIKSAAAFVPVFLPAKPTTTPAPRPPTPAPTIASQPLSLRPEACRPAAGGAVHTRGLDFACDIYIWAPLAGTCGVLLLSLVITLYCNHRNRSKRSRLLHSDYMNMTPRRPGPTRKHYQPYAPPRDFAAYRSRVKFSRSADAPAYQQGQNQLYNELNLGRREEYDVLDKRRGRDPEMGGKPRRKNPQEGLYNELQKDKMAEAYSEIGMKGERRRGKGHDGLYQGLSTATKDTYDALHMQALPPR
notes: as for B1
- % Antigen detection [3]: 35.1%

B5: mask peptide M7 (peptide)
peptide: CTMPYHIHSIGLC
notes: Found by phage display (Screen 2); in the masked constructs preceded by QG and fused through a cleavable linker
- binding result (anti-PTK7 antibody Ab181): binds

B6: CTX181 (unmasked CAR) (other)
chain: QVQLVESGGGVVQPGRSLRLSCAASGFTFSSYGMHWVRQAPGKGLEWVAVIWDDGSNKYYVDSVKGRFTISRDNSKNTLYLQMNSLRAEDTAVYYCARDDYYGSGSFNSYYGTDVWGQGTTVTVSSGGGGSGGGGSGGGGSEIVLTQSPATLSLSPGERATLSCRASQSVSIYLAWYQQKPGQAPRLLIYDASNRATGIPARFSGSGSGTDFTLTISSLEPEDFAVYYCQQRSNWPPFTFGPGTKVDIKSAAAFVPVFLPAKPTTTPAPRPPTPAPTIASQPLSLRPEACRPAAGGAVHTRGLDFACDIYIWAPLAGTCGVLLLSLVITLYCNHRNRKRGRKKLLYIFKQPFMRPVQTTQEEDGCSCRFPEEEEGGCELRVKFSRSADAPAYQQGQNQLYNELNLGRREEYDVLDKRRGRDPEMGGKPRRKNPQEGLYNELQKDKMAEAYSEIGMKGERRRGKGHDGLYQGLSTATKDTYDALHMQALPPR
notes: Chimeric antigen receptor (Ab181 scFv) on the surface of TRAC-/B2M- human T cells; entry without signal peptide; also called anti-PTK7 CAR; unmasked CAR CTX181
- % Cell killing at E:T = 1:0.5 [1]: 97.1%
- % Cell killing at E:T = 1:1 [1]: 96.6%
- IFNγ (pg/mL) at E:T = 1:0.5 [2]: 22300 pg/mL
- IFNγ (pg/mL) at E:T = 1:1 [2]: 34900 pg/mL
- % Antigen detection [3]: 61.9%

B7: mask peptide M4 (peptide)
peptide: CTFPNTTMQRTFC
notes: as for B5
- binding result (anti-PTK7 antibody Ab181): binds

B8: mask peptide M9 (peptide)
peptide: CHIGKRPVPCLWI
notes: as for B5
- binding result (anti-PTK7 antibody Ab181): binds

B9: mask peptide M10 (peptide)
peptide: CYIGLRMVPCFHM
notes: as for B5
- binding result (anti-PTK7 antibody Ab181): binds

B10: mask peptide M11 (peptide)
peptide: CTMPSHAVASFLC
notes: as for B5
- binding result (anti-PTK7 antibody Ab181): binds

B11: mask peptide M14 (peptide)
peptide: CTHVAQWAIKAFC
notes: as for B5
- binding result (anti-PTK7 antibody Ab181): binds

B12: mask peptide M5 (peptide)
peptide: CTYPSWVAYIRFC
notes: as for B5
- binding result (anti-PTK7 antibody Ab181): binds

B13: mask peptide M13 (peptide)
peptide: CTYPPRFHMHWLC
notes: as for B5
- binding result (anti-PTK7 antibody Ab181): binds

B14: mask peptide M6 (peptide)
peptide: VCTYPPAHRTRFC
notes: as for B5
- binding result (anti-PTK7 antibody Ab181): binds

B15: mask peptide M8 (peptide)
peptide: WCTIPSSMSIRLC
notes: as for B5
- binding result (anti-PTK7 antibody Ab181): binds

B16: mask peptide M12 (peptide)
peptide: CTMPVHTYSQWLC
notes: as for B5
- binding result (anti-PTK7 antibody Ab181): binds

B17: mask peptide M3 (peptide)
peptide: CTMPPSPRSKVIC
notes: as for B5
- binding result (anti-PTK7 antibody Ab181): binds

Source: patent US20210347913A1 (CRISPR THERAPEUTICS, published 2021)
